Measurements from paper PMC10397247.
Where two headings read alike, the source gives them in different places.

T1: 4H174-AA
T1 chain: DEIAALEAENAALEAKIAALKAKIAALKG

T2: 4H1842-AA
T2 chain: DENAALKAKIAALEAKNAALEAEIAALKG

T3: O11-AA
T3 chain: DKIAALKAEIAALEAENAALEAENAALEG

T4: 4H3655-AA
T4 chain: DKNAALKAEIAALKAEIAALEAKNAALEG

T5: 4H3844-AA
T5 chain: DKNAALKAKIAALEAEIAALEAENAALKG

T6: 4H3627-AA
T6 chain: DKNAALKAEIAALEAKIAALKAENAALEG

T7: 4H2732-AA
T7 chain: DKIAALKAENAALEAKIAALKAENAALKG

T8: 4H2592-AA
T8 chain: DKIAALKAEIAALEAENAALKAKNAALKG

T9: 4H56-AA
T9 chain: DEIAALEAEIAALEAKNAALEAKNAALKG

T10: 4H3438-AA
T10 chain: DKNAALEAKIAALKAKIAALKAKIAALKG

T11: 4H347-AA
T11 chain: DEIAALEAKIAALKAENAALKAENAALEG

T12: 4H3015-AA
T12 chain: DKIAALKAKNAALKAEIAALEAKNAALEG

T13: 4H2944-AA
T13 chain: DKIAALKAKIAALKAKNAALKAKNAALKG

T14: 4H2165-AA
T14 chain: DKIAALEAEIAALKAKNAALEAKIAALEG

T15: 4H2393-AA
T15 chain: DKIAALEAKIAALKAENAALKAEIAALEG

T16: 4H2754-AA
T16 chain: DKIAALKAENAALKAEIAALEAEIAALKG

T17: 4H2837-AA
T17 chain: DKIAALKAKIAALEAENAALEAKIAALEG

T18: 4H3629-AA
T18 chain: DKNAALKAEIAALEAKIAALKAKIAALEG

T19: 4H3939-AA
T19 chain: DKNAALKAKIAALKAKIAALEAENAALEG

T20: 4H2728-AA
T20 chain: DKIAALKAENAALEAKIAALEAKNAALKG

T21: 4H3969-AA
T21 chain: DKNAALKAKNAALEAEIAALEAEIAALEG

T22: 4H2621-AA
T22 chain: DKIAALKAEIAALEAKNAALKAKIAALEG

T23: 4H464-AA
T23 chain: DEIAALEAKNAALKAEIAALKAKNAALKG

T24: 4H3414-AA
T24 chain: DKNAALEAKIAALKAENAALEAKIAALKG

T25: 4H63-AA
T25 chain: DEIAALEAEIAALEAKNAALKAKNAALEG

T26: 4H2961-AA
T26 chain: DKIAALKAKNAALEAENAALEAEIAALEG

T27: 4H380-AA
T27 chain: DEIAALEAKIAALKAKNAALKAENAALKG

T28: 4H3782-AA
T28 chain: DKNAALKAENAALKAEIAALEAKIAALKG

T29: 4H340-AA
T29 chain: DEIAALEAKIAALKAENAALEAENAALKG

T30: 4H3378-AA
T30 chain: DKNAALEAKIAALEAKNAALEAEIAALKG

T31: 4H3413-AA
T31 chain: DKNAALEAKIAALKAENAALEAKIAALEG

T32: 4H3133-AA
T32 chain: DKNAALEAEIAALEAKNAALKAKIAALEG

T33: 4H32-AA
T33 chain: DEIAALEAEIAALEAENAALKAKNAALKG

T34: 4H1874-AA
T34 chain: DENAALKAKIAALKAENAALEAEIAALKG

T35: 4H2553-AA
T35 chain: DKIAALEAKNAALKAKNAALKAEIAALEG

T36: 4H2198-AA
T36 chain: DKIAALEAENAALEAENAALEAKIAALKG


Key:
Assay in all cases: two-hybrid library CCmax;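 also: natural log of median RNA to DNA barcode read ratio; higher means stronger binding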
[1] = target: T1, 4H174-AA; details: mean of both orientations
[2] = target: T2, 4H1842-AA; details: mean of both orientations
[3] = target: T3, O11-AA; details: mean of both orientations
[4] = target: T4, 4H3655-AA; details: mean of both orientations
[5] = target: T5, 4H3844-AA; details: mean of both orientations
[6] = target: T6, 4H3627-AA; details: mean of both orientations
[7] = target: T7, 4H2732-AA; details: mean of both orientations
[8] = target: T8, 4H2592-AA; details: mean of both orientations
[9] = target: T9, 4H56-AA; details: mean of both orientations
[10] = target: T10, 4H3438-AA; details: mean of both orientations
[11] = target: T11, 4H347-AA; details: mean of both orientations
[12] = target: T12, 4H3015-AA; details: mean of both orientations
[13] = target: T13, 4H2944-AA; details: mean of both orientations
[14] = target: T14, 4H2165-AA
[15] = target: T15, 4H2393-AA; details: mean of both orientations
[16] = target: T16, 4H2754-AA; details: mean of both orientations
[17] = target: T17, 4H2837-AA
[18] = target: T18, 4H3629-AA; details: mean of both orientations
[19] = target: T19, 4H3939-AA; details: mean of both orientations
[20] = target: T20, 4H2728-AA; details: mean of both orientations
[21] = target: T21, 4H3969-AA; details: mean of both orientations
[22] = target: T22, 4H2621-AA; details: mean of both orientations
[23] = target: T23, 4H464-AA
[24] = target: T24, 4H3414-AA; details: mean of both orientations
[25] = target: T25, 4H63-AA; details: mean of both orientations
[26] = target: T26, 4H2961-AA; details: mean of both orientations
[27] = target: T27, 4H380-AA; details: mean of both orientations
[28] = target: T28, 4H3782-AA; details: mean of both orientations
[29] = target: T29, 4H340-AA; details: mean of both orientations
[30] = target: T30, 4H3378-AA; details: mean of both orientations
[31] = target: T31, 4H3413-AA; details: mean of both orientations
[32] = target: T32, 4H3133-AA; details: mean of both orientations
[33] = target: T33, 4H32-AA; details: mean of both orientations
[34] = target: T34, 4H1874-AA; details: mean of both orientations
[35] = target: T35, 4H2553-AA; details: mean of both orientations
[36] = target: T36, 4H2198-AA; details: mean of both orientations

interaction score [7] | interaction score [8] | interaction score [9] | interaction score [10] | interaction score [11] | interaction score [12] | interaction score [18] | interaction score [19] | interaction score [20] | interaction score [21] | interaction score [22] | interaction score [24] | interaction score [25] | interaction score [26] | interaction score [27] | interaction score [28] | Binder | other results
 |  |  |  |  |  |  |  |  |  |  |  |  |  |  |  | DEIAALEAENAALEAKIAALKAENAALEG [4H171-AA] | interaction score [1]: -1.16; interaction score [2]: -1.26; interaction score [3]: -1.82
 |  |  |  |  |  |  |  |  |  |  |  |  |  |  |  | DKNAALKAEIAALEAENAALEAKIAALKG [4H3606-AA] | interaction score [4]: -1.72; interaction score [5]: -1.17; interaction score [6]: -1.29
-1.3 | -1.61 | -1.23 | -1.2 | -1.66 | -1.11 |  |  |  |  |  |  |  |  |  |  | DKIAALEAENAALKAEIAALKAKIAALEG [4H2253-AA] | 
 | -1.24 |  |  | -1.66 |  |  |  |  |  |  |  |  |  |  |  | DENAALKAEIAALKAENAALKAEIAALKG [4H1626-AA] | interaction score [1]: -1.63; interaction score [2]: -1.57
-1.36 | -0.973 | -0.766 | -1.07 | -1.3 | -1.54 |  |  |  |  |  |  |  |  |  |  | DKIAALEAEIAALKAKNAALEAKIAALEG [4H2165-AA] | interaction score [13]: -1.53; interaction score [4]: -1.37; interaction score [14]: 1.41; interaction score [15]: -0.392; interaction score [5]: -1.35; interaction score [16]: -0.0505; interaction score [17]: 0.959; interaction score [6]: -1.58
-0.302 | -0.437 | -1.62 | -1.6 | 0.274 | -1.1 | -1.69 | -1.85 | -0.387 | -1.58 | -1.28 | 0.535 | -1.75 | 1.36 | -1.27 | 1.43 | DEIAALEAENAALKAKNAALKAEIAALEG [4H249-AA] | interaction score ([23]; mean of both orientations): -1.77
 |  |  |  |  |  |  |  |  |  |  |  |  |  |  | -1.6 | DENAALKAKIAALEAKNAALEAKIAALEG [4H1845-AA] | interaction score [29]: -1.97; interaction score [30]: -1.04; interaction score [31]: -0.729; interaction score [32]: -0.676; interaction score [33]: -1.5; interaction score [34]: -1.25; interaction score [35]: -1.84; interaction score [36]: -1.5
 |  |  |  |  |  | 0.329 | -1.27 | -0.459 | 0.285 | -0.883 | -1.01 | -1.72 | -1.08 | -1.14 | 2.21 | DENAALEAENAALKAKIAALKAEIAALEG [4H1257-AA] | interaction score ([23]; mean of both orientations): -1.07
 |  |  |  |  |  | 0.654 | 2.3 | -1.43 | -1.31 | -1.07 | -0.952 | -1.29 | -1.24 | -0.648 | -0.855 | DENAALEAEIAALEAKIAALEAKNAALKG [4H1064-AA] | interaction score [23]: -1.84
